B1: SiaT9: sialyltransferase of Vibrio sp. JT-FAJ-16, acc. BAF91160, SEQ ID NO: 2 (protein, listed as Vibrio sp.)
chain: MNNDNSTTTNNNAIEIYVDRATLPTIQQMTKIVSQKTSNKKLISWSRYPITDKSLLKKINAEFFKEQFELTESLKNIILSENIDNLIIHGNTLWSIDVVDIIKEVNLLGKNIPIELHFYDDGSAEYVRIYEFSKLPESEQKYKTSLSKNNIKFSIDGTDSFKNTIENIYGFSQLYPTTYHMLRADIFDTTLKINPLRELLSNNIKQMKWDYFKDFNYKQKDIFYSLTNFNPKEIQEDFNKNSNKNFIFIGSNSATATAEEQINIISEAKKENSSIITNSISDYDLFFKGHPSATFNEQIINAHDMIEINNKIPFEALIMTGILPDAVGGMGSSVFFSIPKEVKNKFVFYKSGTDIENNSLIQVMLKLNLINRDNIKLISDI
B2: SiaT19: sialyltransferase of Photobacterium leiognathi JT-SHIZ-145, acc. BAF91416, SEQ ID NO: 30 (protein, listed as Photobacterium leiognathi)
chain: MNDNQNTVDVVVSTVNDNVIENNTYQVKPIDTPTTFDSYSWIQTCGTPILKDDEKYSLSFDFVAPELDQDEKFCFEFTGDVDGKRYVTQTNLTVVAPTLEVYVDHASLPSLQQLMKIIQQKNEYSQNERFISWGRIRLTEDNAEKLNAHIYPLAGNNTSQELVDAVIDYADSKNRLNLELNTNTGHSFRNIAPILRATSSKNNILISNINLYDDGSAEYVSLYNWKDTDNKSQKLSDSFLVLKDYLNGISSEKPNGIYSIYNWHQLYHSSYYFLRKDYLTVETKLHDLREYLGGSLKQMSWDTFSQLSKGDKELFLNIVGFDQEKLQQEYQQSELPNFVFTGTTTWAGGETKEYYAQQQVNVVNNAINETSPYYLGREHDLFFKGHPRGGIINDIILGSFNNMIDIPAKVSFEVLMMTGMLPDTVGGIASSLYFSIPAEKVSFIVFTSSDTITDREDALKSPLVQVMMTLGIVKEKDVLFWC

Assay: In vitro sialylation of LNT by protein extracts, LST-a/-b quantified by LC-MS/MS
Format: biochemical
Conditions: for Ranking in the screening for sialylation of LNT: in words
Procedure, shortened: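 E. coli BL21(DE3) crude extracts overexpressing sialyltransferases (IPTG 0.3 mM, 12–16 h at 30 °C) incubated 16 h with 5 mM LNT and 10 mM CMP-Neu5Ac in 50 mM Tris-HCl pH 7.5, 5 mM MgCl2. LST-a and LST-b measured by HILIC LC-MS/MS, MRM in ESI negative mode, against commercial standards.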

[1] = 5 mM LNT, 10 mM CMP-Neu5Ac, 16 hours, LC-MS/MS, relative quantity, n.d.: not detectable

Row | Molecule | Relative efficacy of sialyltransferases regarding in-vitro production of sialyllacto-N-tetraoses: LST-a [1] | Ranking in the screening for sialylation of LNT | Relative efficacy of sialyltransferases regarding in-vitro production of sialyllacto-N-tetraoses: LST-b [1]
1 | B1 | 8.39 × 10^3 | best performing α-2,3-sialyltransferases for LST-a production | –
2 | B2 | – | sialylate LNT most efficiently among the tested α-2,6-sialyltransferases | 157

— patent publication US12692524B2, “Sialyltransferases and their use in producing sialylated oligosaccharides” (Chr. Hansen A/S, priority 2017, dated 2026)
